Measurements taken from the supplement of paper PMC9732359.
± gives the uncertainty stated by the source.

Test: protein stability index of a GFP-peptide fusion (yeast GPS) (PSI 1-4); higher = more stable; sorted into four equal gates, so the index is relative within each strain
Outline: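 Tiled yeast protein peptides of 17 residues were each joined downstream of GFP, on plasmids that also express Cherry. The pooled library was maintained in yeast, and mid-log cultures in leucine-free medium were sorted into four equal gates on the GFP/Cherry ratio. Plasmids from every gate were amplified by PCR and sequenced on Illumina, with barcodes linking reads to strains. The protein stability index of a peptide is its gate-number-weighted read frequency summed over the gates.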

| Sequence | protein stability index (doa10∆) | protein stability index (pdr5∆) | protein stability index (san1∆) | protein stability index (ubr1∆) |
| --- | --- | --- | --- | --- |
| VDDSMELCGQIRSERFK [ITC1] | 2.84 ± 0.072 | 3 ± 0.067 | 3.28 ± 0.086 | 2.94 ± 0.13 |
| EDDNTPAGHAGNPTNIS [YDL088C/ASM4] | 2.87 ± 0.076 | 2.88 ± 0.063 | 2.91 ± 0.052 | 3.1 ± 0.046 |
| NVRMDTMANILYYPQKP [RPB2] | 2.83 ± 0.11 | 3.23 ± 0.24 | 3.12 ± 0.1 | 2.99 ± 0.1 |
| KALPIRRDDEVLVVRGS [RPL26A] | 3.06 ± 0.18 | 3.05 ± 0.12 | 3.23 ± 0.13 | 3.32 ± 0.15 |
| SIYDKWTDPNLKSSLAD [RPN1] | 2.99 ± 0.1 | 2.96 ± 0.067 | 2.88 ± 0.062 | 3.19 ± 0.054 |
| YGQRAVLKFAAHTGATP [RPS0B] | 2.27 ± 0.055 | 2.88 ± 0.039 | 2.66 ± 0.046 | 2.66 ± 0.041 |
| KTMIKTIEKDKMKIQET [SMC2] | 2.85 ± 0.17 | 1.86 ± 0.14 | 1.64 ± 0.12 | 2.04 ± 0.062 |
| APQVYIITKNENFLKEV [GAL11] | 3.37 ± 0.24 |  |  | 3.5 ± 0.19 |
| YRPLTPSSEVYSPIEKE [RRP6] | 2.74 ± 0.071 | 3.03 ± 0.064 | 2.69 ± 0.073 | 2.91 ± 0.066 |
| EDTNTKPLFDFGKTGDQ [YOR098C/NUP1] | 1.86 ± 0.25 |  |  |  |
| TTPVKLGPGIYCDPNTQ [RRP40] | 2.65 ± 0.077 | 2.2 ± 0.076 | 2.74 ± 0.06 | 2.35 ± 0.05 |
| SIVGVDLSSAASASGAA [FAS2] | 1.77 ± 0.13 | 1.53 ± 0.11 |  | 1.62 ± 0.18 |
| CLMRSLHKLELKAKNQE [DSN1] | 1.21 ± 0.06 | 1.31 ± 0.067 | 1.19 ± 0.16 | 1.16 ± 0.051 |
| FAISMGYLFKVSALDKC [ECM29] |  | 1.67 ± 0.21 | 1.91 ± 0.23 | 2.13 ± 0.13 |
| VNISAVDNTTEQSNSRK [YCG1] | 3.26 ± 0.23 | 2.35 ± 0.28 | 3.1 ± 0.25 |  |
| PNHNSPVVINLDAKNKV [RPO31] | 2.92 ± 0.16 | 3.08 ± 0.19 |  | 3.03 ± 0.24 |
| LRSNKCILYDADESKMA [RET1] |  | 3.07 ± 0.18 |  |  |
| VKNKYNVGKQLSNEIIY [PRP28] | 2.35 ± 0.062 | 2.6 ± 0.069 | 2.36 ± 0.071 | 2.57 ± 0.052 |
| TTYTYQQPNPLQDLISV [ROX3] | 1.67 ± 0.059 | 1.81 ± 0.069 | 1.7 ± 0.11 | 2.08 ± 0.1 |
| ESAPITAEDSWAVISAF [RPB2] | 3.17 ± 0.08 | 2.99 ± 0.062 | 2.91 ± 0.051 | 2.99 ± 0.06 |
| GDEGYNEDMVRRANFYK [SNF12] | 3.38 ± 0.14 | 3.36 ± 0.17 | 3.44 ± 0.076 | 3.45 ± 0.14 |
| NIKSSISNGNLATGPNL [YOR098C/NUP1] | 2.77 ± 0.09 | 3.18 ± 0.084 | 2.99 ± 0.11 | 2.89 ± 0.065 |
| ILNHIGQLTGIYRYKYK [PRP8] | 1.39 ± 0.072 | 1.47 ± 0.075 | 1.26 ± 0.11 | 2.03 ± 0.068 |
| SRMTVGKMIELISGKAG [RET1] | 3.14 ± 0.17 | 2.98 ± 0.15 | 3.05 ± 0.094 | 3.12 ± 0.13 |
| KVLGVKDMSPILGELKR [LRP1] | 2.71 ± 0.089 | 3.14 ± 0.068 | 2.88 ± 0.065 | 3.12 ± 0.045 |

| Sequence | protein stability index (doa10∆) | protein stability index (pdr5∆) | protein stability index (san1∆) | protein stability index (ubr1∆) |
| --- | --- | --- | --- | --- |
| DTNAPVAATITSSQKEP [SRB8] | 2.35 ± 0.14 | 2.79 ± 0.13 | 3.04 ± 0.086 | 2.96 ± 0.11 |
| CSNPTCGAGVFLANHKD [RPS31] | 3.06 ± 0.12 | 2.82 ± 0.21 | 2.57 ± 0.24 | 2.73 ± 0.14 |
| IEANVTVKTSDDYVLRI [RPS1A] | 2.98 ± 0.035 | 2.9 ± 0.038 | 2.96 ± 0.036 | 2.726 ± 0.027 |
| LRNVFLGKCSRITDASL [GRR1] | 2.94 ± 0.066 | 2.81 ± 0.097 | 2.68 ± 0.07 | 2.82 ± 0.05 |
| DINVELFPVAAQDSLTV [RPB8] | 1.33 ± 0.24 | 1.82 ± 0.11 | 1.16 ± 0.23 | 1.94 ± 0.069 |
| DSFENYFNQLKPYYFSN [RPN12] | 2.66 ± 0.083 | 2.95 ± 0.1 | 2.97 ± 0.058 | 3.02 ± 0.056 |
| IDNSPQAISYLHKLQRM [GRR1] | 2.96 ± 0.058 | 2.48 ± 0.047 | 2.4 ± 0.045 | 2.69 ± 0.039 |
| LVFILAVVGNNMLLDPA [RRP42] | 1.56 ± 0.088 | 1.39 ± 0.076 | 1.94 ± 0.12 | 1.81 ± 0.063 |
| LINIDTSIANAFRRIMI [RPC40] | 2.28 ± 0.043 | 2.83 ± 0.054 | 3.14 ± 0.046 | 2.89 ± 0.049 |
| RDLGDDRVFNVPTIGVV [YJR042W/NUP85] |  |  | 3.41 ± 0.19 |  |
| ENNDDALDLDLDLFDPD [MED4] | 2.89 ± 0.067 | 2.98 ± 0.098 | 2.79 ± 0.052 | 3.1 ± 0.051 |
| FSFGAATPSAKEASQED [YLR335W/NUP2] | 3.29 ± 0.062 | 3.25 ± 0.074 | 3.12 ± 0.055 | 3.16 ± 0.087 |
| YGFKQEIFDVTSNGLKK [FAS1] | 2.98 ± 0.12 | 3.3 ± 0.083 | 2.61 ± 0.085 | 2.89 ± 0.047 |
| LIENCKKRNMPLQSIPE [SWI1] | 2.86 ± 0.068 | 2.86 ± 0.056 | 3.01 ± 0.051 | 3.05 ± 0.046 |
| VSLGTSIMAVTFKDGVI [PRE3] | 3.55 ± 0.12 | 3.12 ± 0.18 | 3.27 ± 0.075 | 3.6 ± 0.074 |
| AMFFGNYGSSLQWHAMI [AAR2] | 2.41 ± 0.093 | 1.8 ± 0.085 | 1.44 ± 0.12 | 2.15 ± 0.071 |
| GEEDADEEETAEGQTNS [RPN1] | 3.26 ± 0.18 | 3.16 ± 0.26 | 3.01 ± 0.14 |  |
| KNWQNVGSLVVKSSMGP [RPL1A] | 2.1 ± 0.046 | 2.39 ± 0.051 | 2.7 ± 0.064 | 2.29 ± 0.045 |
| YSIALSNVAAIFKGIGG [GAL11] | 1.52 ± 0.08 | 1.55 ± 0.076 | 1.38 ± 0.18 | 1.48 ± 0.048 |
| NQSNLNGGNNTQQPGTN [SNF2] | 2.76 ± 0.073 | 3.1 ± 0.075 | 3.08 ± 0.062 | 3.04 ± 0.056 |
| LATNSLVEEFMLLANIS [DIS3] | 1.39 ± 0.095 | 1.7 ± 0.099 | 1.74 ± 0.16 | 2.37 ± 0.071 |
| STPGGGSVFNMNGNTNA [YOR098C/NUP1] | 2.87 ± 0.098 | 3.6 ± 0.2 |  | 3.15 ± 0.15 |
| SELLARDIFQEDEENSD [RGR1] | 3.48 ± 0.12 | 3.37 ± 0.12 | 3.02 ± 0.14 | 3.27 ± 0.17 |
| SVINVSAQRDRRYRKRN [RPS17B] |  | 3.04 ± 0.25 | 3.23 ± 0.24 |  |
| SVQTFGKKKSATAVAHV [RPS16A] | 2.37 ± 0.065 | 2.49 ± 0.069 | 2.19 ± 0.11 | 2.1 ± 0.069 |

| Sequence | protein stability index (doa10∆) | protein stability index (pdr5∆) | protein stability index (san1∆) | protein stability index (ubr1∆) |
| --- | --- | --- | --- | --- |
| LQPVIPGGAASKSVPTP [SNF5] | 2.93 ± 0.13 | 3.28 ± 0.062 | 3.12 ± 0.049 | 3.13 ± 0.053 |
| ESIDVDMDAESNESQNG [SMC3] | 3.21 ± 0.094 | 2.91 ± 0.079 | 2.65 ± 0.066 | 3.27 ± 0.037 |
| QLKNGLLEKYNTNELKE [MTR3] | 2.97 ± 0.055 | 2.69 ± 0.056 | 3.08 ± 0.05 | 2.65 ± 0.045 |
| AELDPSLRTPIAPKITP [SEC65] | 3.06 ± 0.1 | 3.05 ± 0.058 | 3 ± 0.082 | 3.13 ± 0.055 |
| EINSEMCHIVRKFHELN [GRR1] | 2.4 ± 0.057 | 2.81 ± 0.063 | 2.85 ± 0.064 | 2.44 ± 0.05 |
| FSFSKSEEERKSSPISN [YOR098C/NUP1] | 2.48 ± 0.11 | 2.23 ± 0.071 | 2.41 ± 0.091 | 2.94 ± 0.084 |
| IKHSKCRQEFLERVKAN [RPL21A] |  | 3.1 ± 0.23 |  |  |
| QELELPGEFVTAIAHSI [SNF5] | 2.36 ± 0.049 | 2.37 ± 0.038 | 2.38 ± 0.038 | 2.4 ± 0.043 |
| SMILIQQTEKLNPQVAD [RPN2] | 1.53 ± 0.041 | 1.67 ± 0.044 | 1.65 ± 0.073 | 1.63 ± 0.03 |
| EVTEGQAEATEWAEENA [RPS0B] | 2.44 ± 0.27 | 3.22 ± 0.22 | 2.44 ± 0.17 | 2.44 ± 0.14 |
| NSTGHSSNTNNNTNNNN [SWI1] | 3.48 ± 0.069 | 3.26 ± 0.066 | 3.17 ± 0.054 | 3.33 ± 0.063 |
| MVQQLSLFGSIGDDGYD [SRB5] | 3.17 ± 0.1 | 3.26 ± 0.13 | 3.16 ± 0.057 | 3.47 ± 0.085 |
| IVAQSEVEVSTRDLFDL [RPO31] | 3.07 ± 0.074 | 3.34 ± 0.083 | 3.3 ± 0.059 | 3.2 ± 0.067 |
| KQERLKENEESLTPTQS [PRP28] | 3.13 ± 0.092 | 3.4 ± 0.07 | 3.22 ± 0.12 | 3.15 ± 0.074 |
| NPYNTRSNKIKVVKTPG [RPL34A] | 1.98 ± 0.065 | 1.93 ± 0.045 | 2.16 ± 0.08 | 2.15 ± 0.039 |
| YIDYSSKRYIPSVNDFV [RRP40] | 2.51 ± 0.048 | 2.83 ± 0.051 | 2.42 ± 0.1 | 2.6 ± 0.078 |
| VVGQLFQIDNDNIRYAT [SMC2] | 2.67 ± 0.067 | 2.67 ± 0.066 | 2.65 ± 0.065 | 2.88 ± 0.078 |
| DSLKKLLPQWDDDQIES [ARP9] | 3.32 ± 0.14 | 3.17 ± 0.087 | 2.83 ± 0.071 | 3.17 ± 0.081 |
| NKYQYSLKQYAGNLITT [SRP68] | 3.23 ± 0.23 | 1.44 ± 0.14 | 1.7 ± 0.11 | 1.54 ± 0.06 |
| MHLMALHIHGSSNPLGI [COB] | 2.31 ± 0.07 | 2.1 ± 0.059 | 2.1 ± 0.052 | 2.32 ± 0.046 |
| DNKEKDFELEISWCSLS [PRE10] | 3.54 ± 0.12 | 3.13 ± 0.14 | 2.87 ± 0.13 | 3.13 ± 0.088 |
| KTKAMSLSIEENIPVAL [POP1] | 2.92 ± 0.079 | 3.01 ± 0.099 | 3.22 ± 0.1 | 3.17 ± 0.092 |
| DSTVVYPLPKFPTTSHE [MED8] | 2.75 ± 0.048 | 3.06 ± 0.051 | 2.92 ± 0.046 | 3.02 ± 0.054 |
| GYVETPRGLRSLTTVWA [RPL3] | 1.75 ± 0.29 |  |  |  |
| YSEHLKPYDINVVLVTN [DIS3] | 1.77 ± 0.071 | 2.98 ± 0.094 | 2.86 ± 0.066 | 2.47 ± 0.055 |
